According to patent US6458943 (INSTITUT NATIONAL DE LA SANTE ET DE LA RECHERCHE MEDICALE, dated 2002):

T1: histidyl t-RNA synthetase library interactor (pAD-GAL4 construct, EBML accession no. Z 11518) (human, UniProt P04386 761-881; P12081 2-509, limits assumed)
T1 construct: False positive of the Hf7c screen
T1 sequence (looked up): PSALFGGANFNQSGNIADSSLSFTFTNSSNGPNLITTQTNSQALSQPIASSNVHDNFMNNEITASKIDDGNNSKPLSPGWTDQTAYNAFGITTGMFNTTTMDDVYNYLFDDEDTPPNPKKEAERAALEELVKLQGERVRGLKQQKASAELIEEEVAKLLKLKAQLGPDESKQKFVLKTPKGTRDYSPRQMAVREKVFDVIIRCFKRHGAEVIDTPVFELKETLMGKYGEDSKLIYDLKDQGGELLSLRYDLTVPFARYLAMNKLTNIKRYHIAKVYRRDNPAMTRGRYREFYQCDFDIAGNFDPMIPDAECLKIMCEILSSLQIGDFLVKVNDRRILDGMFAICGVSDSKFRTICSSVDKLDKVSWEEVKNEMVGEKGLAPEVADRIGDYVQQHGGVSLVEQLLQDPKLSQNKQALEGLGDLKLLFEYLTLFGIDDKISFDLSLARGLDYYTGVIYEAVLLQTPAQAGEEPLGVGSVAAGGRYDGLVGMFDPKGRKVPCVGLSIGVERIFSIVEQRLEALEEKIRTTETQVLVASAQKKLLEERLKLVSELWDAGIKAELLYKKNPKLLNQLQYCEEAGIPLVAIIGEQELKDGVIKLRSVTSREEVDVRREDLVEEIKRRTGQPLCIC

T2: hD53 interactor (GAL4 activation domain fusion, pACT2hD53) (human, UniProt P04386 768-881 (Saccharomyces cerevisiae entry))
T2 construct: range 768-881
T2 sequence: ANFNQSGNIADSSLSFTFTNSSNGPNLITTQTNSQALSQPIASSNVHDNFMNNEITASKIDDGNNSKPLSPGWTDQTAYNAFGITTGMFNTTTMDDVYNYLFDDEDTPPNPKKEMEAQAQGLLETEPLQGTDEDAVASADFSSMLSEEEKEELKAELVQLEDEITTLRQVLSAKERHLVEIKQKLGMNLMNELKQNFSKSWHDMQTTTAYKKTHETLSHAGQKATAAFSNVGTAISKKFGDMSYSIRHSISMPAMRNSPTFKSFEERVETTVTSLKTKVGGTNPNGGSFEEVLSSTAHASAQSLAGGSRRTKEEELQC

T3: mD52(1-163) interactor (GAL4 activation domain fusion, pACT2mD52(1-163)) (mouse, UniProt P04386 768-881 (Saccharomyces cerevisiae entry))
T3 construct: range 768-881
T3 sequence: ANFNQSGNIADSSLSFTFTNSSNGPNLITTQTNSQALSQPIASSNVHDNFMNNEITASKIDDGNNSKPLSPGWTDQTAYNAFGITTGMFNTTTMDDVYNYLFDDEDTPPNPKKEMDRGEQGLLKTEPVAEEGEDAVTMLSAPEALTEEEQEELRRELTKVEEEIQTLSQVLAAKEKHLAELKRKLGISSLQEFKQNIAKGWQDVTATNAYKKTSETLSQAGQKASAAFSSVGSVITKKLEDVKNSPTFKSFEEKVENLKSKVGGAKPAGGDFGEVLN

T4: hD52 interactor (GAL4 activation domain fusion, pAD-GAL4hD52) (human, UniProt P04386 761-881 (Saccharomyces cerevisiae entry))
T4 construct: range 761-881; also called hD52^c
T4 sequence: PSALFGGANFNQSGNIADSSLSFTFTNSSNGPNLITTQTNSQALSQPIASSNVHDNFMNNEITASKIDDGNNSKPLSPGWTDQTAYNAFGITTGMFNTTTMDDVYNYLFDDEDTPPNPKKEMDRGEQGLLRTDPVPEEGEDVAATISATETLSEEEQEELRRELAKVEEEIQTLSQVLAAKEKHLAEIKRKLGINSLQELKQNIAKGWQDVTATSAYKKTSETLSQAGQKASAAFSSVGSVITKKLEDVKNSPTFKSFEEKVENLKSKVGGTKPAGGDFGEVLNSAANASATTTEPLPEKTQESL

B1: mD52(95-185) bait (GAL4 DNA-binding domain fusion, pAS2-1mD52(95-185)) (other)
chain: MKLLSSIEQACDICRLKKLKCSKEKPKCAKCLKNNWECRYSPKTKRSPLTRAHLTEVESRLERLEQLFLLIFPREDLDMILKMDSLQDIKALLTGLFVQDNVNKDAVTDRLASVETDMPLTLRQHRISATSSSEESSNKGQRQLTVSAYKKTSETLSQAGQKASAAFSSVGSVITKKLEDVKNSPTFKSFEEKVENLKSKVGGAKPAGGDFGEVLNSTANATSTMTTEPPPEQMTESP
notes: also called C-terminal half of mD52
B2: RING10 proteasome subunit library interactor (pAD-GAL4 construct, GenBank accession no. X62598) (other, UniProt P04386 761-881, looked up)
chain: PSALFGGANFNQSGNIADSSLSFTFTNSSNGPNLITTQTNSQALSQPIASSNVHDNFMNNEITASKIDDGNNSKPLSPGWTDQTAYNAFGITTGMFNTTTMDDVYNYLFDDEDTPPNPKKETTTLAFKFQHGVIAAVDSRASAGSYISALRVNKVIEINPYLLGTMSGCAADCQYWERLLAKECRLYYLRNGERISVSAASKLLSNMMCQYRGMGLSMGSMICGWDKKGPGLYYVDEHGTRLSGNMFSTGSGNTYAYGVMDSGYRPNLSPEEAYDLGRRAIAYATHRDSYSGGVVNMYHMKEDGWVKVESTDVSDLLHQYREANQ
notes: False positive of the Hf7c screen
B3: mD52 bait (GAL4 DNA-binding domain fusion, pAS2-1mD52) (other, not shown: small tags and cut ends)
chain: MDRGEQGLLKTEPVAEEGEDAVTMLSAPEALTEEEQEELRRELTKVEEEIQTLSQVLAAKEKHLAELKRKLGISSLQEFKQNIAKGWQDVTATNAYKKTSETLSQAGQKASAAFSSVGSVITKKLEDVKNSPTFKSFEEKVENLKSKVGGAKPAGGDFGEVLNSTANATSTMTTEPPPEQMTESP
notes: Fusion expressed in yeast; also called full-length mD52 bait

Legend:
[1] = target: T5, eukaryotic initiation factor 4AII library interactor (pAD-GAL4 construct, DNA Database of Japan accession no. … (human, UniProt P04386 761-881; Q14240 1-407, limits assumed); assay: yeast two-hybrid, retransfection of Hf7c
T5 construct: False positive of the Hf7c screen
Method: (§1) Transformants were plated onto solid SD/-His-Trp-Leu (incorporating 35 mM 3-AT in the case of Y190 transformants) and incubated for up to 14 days at 30° C. After 3 initial days of growth, plates were inspected daily, and His+ colonies were transferred to SD/-His-Trp-Leu +0.07 M potassium phosphate pH 7+40 µg/ml X-gal plates which incorporated 35 mM 3-AT in the case of Y190 co-transformants. Colonies which remained His+, and in the case of Y190 co-transformants, were also lacZ+, were re-streaked onto fresh plates to check that all colonies were of uniform phenotype. After 6 days incubation at 30° C., yeast colonies were directly harvested, and plasmid DNA was isolated and used to transfect XL1 Blue. Mini-preparations of plasmid DNA were performed for at least 5 XL1 Blue colonies per transfection, with the results of restriction digests differentiating potential interactors from bait plasmids. […] Phenotypes of resulting co-transfectants were assayed quantitatively and/or qualitatively as described above.

[2] = target: T1, histidyl t-RNA synthetase library …; assay: yeast two-hybrid, retransfection of Hf7c
Method: as §1

[3] = target: B2; assay: yeast two-hybrid, retransfection of Hf7c
Method: as §1

[4] = target: T2, hD53 interactor (GAL4 activation domain …); assay: yeast two-hybrid in Y190, β-galactosidase assay
Method: Interactions between baits and interactors were assessed by qualitatively and/or quantitatively determining HIS3 and lacZ reporter gene activity in Y190 co-transfectants. Reporter gene activities were assessed qualitatively by observing the growth and color development of Y190 co-transfectants on solid SD media lacking His, Trp and Leu (SD/-His-Trp-Leu), and incorporating 0.07 M potassium phosphate pH 7, 35 mM 3-AT, and 40 µg/ml X-gal. For quantitative assessment of interactions, β-galactosidase activity was measured using the substrate o-nitrophenyl β-D-galactopyranoside (ONPG) in liquid cultures (SD/-His-Trp-Leu +35 mM 3-AT) of Y190 co-transfectants.

[5] = target: T6, hD52 bait (GAL4 DNA-binding domain fusion, pAS2-1hD52) (human, UniProt P04386 1-147 (Saccharomyces cerevisiae entry)); assay: yeast two-hybrid, retransfection of Hf7c
T6 construct: Fusion expressed in yeast; also called full-length hD52 bait
Method: as §1

[6] = target: T3, mD52(1-163) interactor (GAL4 activation …); assay: yeast two-hybrid, Y190 co-transfectants, HIS3/lacZ reporters; interactor (GAL4-AD fusion) against bait (GAL4-DB fusion)
Method: (§2) Interactions between baits and interactors were assessed by qualitatively and/or quantitatively determining HIS3 and/or lacZ reporter gene activity in Y190 co-transfectants.
(§3) Interactions between D52-like proteins within the yeast two-hybrid system, as measured by quantitative β-galactosidase assays. […] Three (or two*) colonies from each co-transfected Y190 strain were cultured in the absence of histidine, and assayed separately for β-galactosidase activity (see Methods). The mean number of β-galactosidase activity units obtained for each co-transfection is presented, ± the standard error.

[7] = target: T2, hD53 interactor (GAL4 activation domain …); assay: as above
Method: as §2, §3

[8] = target: T7, hD54+ins2 interactor (GAL4 activation domain fusion, pACT2hD54+ins2) (human, UniProt P04386 768-881 (Saccharomyces cerevisiae entry)); assay: as above
T7 construct: range 768-881
Method: as §2, §3

[9] = target: T8, hD54-ins2 interactor (GAL4 activation domain fusion, pACT2hD54-ins2) (human, UniProt P04386 768-881 (Saccharomyces cerevisiae entry)); assay: as above
T8 construct: range 768-881
Method: as §2, §3

[10] = target: T4, hD52 interactor (GAL4 activation domain …); assay: as above
Method: as §2, §3

Measured: binding result

B1
no binding: [1] | [2] | [3] | [4]

B2
no binding: [5]

B3
binds: [6] | [7] | [8] | [9] | [10]
